# Test results taken from the nanobody polyreactivity screen of Harvey et al. (2022).
# Assay: yeast display, Sf9 membrane polyspecificity reagent, FACS + sequencing; frameworks hold sequencing errors
# Procedure, shortened: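 Nanobodies from a synthetic yeast display library (Saccharomyces cerevisiae BJ5465), induced 36–48 hours with galactose, were stained 1 hour at 4 °C with 10% biotinylated, detergent-solubilized Sf9 membrane reagent, enriched on streptavidin microbeads, then FACS-sorted. Anti-HA (expression) and streptavidin (reagent binding) fluorescence set low and high (top ~1%) gates. Polyreactivity labels come from the gate of origin. Genes were colony-PCR amplified, MiSeq 2 × 250 sequenced and filtered by CDR length.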
row,Sequence,polyreactivity (PSR sort gate)
1,QVQLVESGGGLVQAGGSLRLSCAASGSIFSSYAMGWYRQAPGKERELVASISSGGSTNYADSVKGRFTISRDNAKNTVYLQMNSLKPEDTAVYYCNVDLYNWRGDSTGYDYWGQGTQVTVSS,low polyreactivity
2,QVQLVESGGGLVQAGGSRRLSCAASGFTFPHYLGRYRQAPGKERELVAAIIVSGGSTSYADSVKGRFTMSRDNAKNTVYLQMNSLKPEDTAVYYCAKDLRFRLFSYPSDYWGQGTQVTVSS,low polyreactivity
3,QVQLVESGGGLVQAGGSLRLSCAASGFTLDVNAIGWYRQAPGKERELVATISWGGASTYYADSVKGRFTISRDNAKNTVYLQMNSLKPEDTAVYYFAAQYYYPDDKGGYDYWGQGTQVTVSS,low polyreactivity
4,QVQLVESGGGLVQAGGSLRLICAASGSIFNGYVMGWYRQAPGKERELVAAISSGGRTYYADSVKGRFTISRDNAKNTVYLQMNSLKPEDTAVYYCAADIWYFDYDYWGQGTQVTVSS,high polyreactivity
5,QVWLQESGGGLVQACGSLRLSCAASGTISRDIFMGWYRQAPGKEREFVATIAQGGITNYADSVKGRFTISRDNAKNTLYLQMNSVKPGDTAVYYCAARDGNCYWFYYWGQGTQVTVSS,high polyreactivity
6,QVQLVETWGGLVQAGGSLRLSCPASGSIFPRKAMGWYRQAPGKERELVAGISSGGSTNYADSVKGRFTISRDNAKNTVYLQMNSLKPEDTAVYYCAARQWIRNLGFGYSIYNYWGQGTQVTVSS,high polyreactivity
7,QVQLVESGGGLVQAGGSLRLSCAASGRTFRYYTMGWYRPAPGKEREFVAAISSTGGTYYADSVKGRFTISRDNAKNTVYLQMNSLKPEDTAVYYCAATFIQVVVNVQLYDYDYWGQGTQVTVSS,low polyreactivity
8,QVQLVESGGGLVQAGGSLRLSCAASGSTFSYNAMGWYRQAPGKERELVAAITSTGRTYYADSVKGRFTISRDNAKNTVYLQMNSLKPEDTAVYYCNKRARSEQYSYKYGYYYWGQGTQVTVSS,high polyreactivity
9,QVQLVESGGGLVQAGGSLRLSCAASGRIFYGYAMGWYRQAPGKERELVASISRRGSSTYYADSVKGRFTISRDNAKNTVYLQMNSLKPEDTAVYYCAKYTVQYAISHYDYWGQGTQVTVSS,high polyreactivity
10,QVQLVESGGGLVQAGGSLRLSCAASGRIFKDNAMGWYRQAPGKERELLATIDSGGDTNYADSVKGRFTISRDNAKNTVYLQMNSLKPEDTAVYYCNTEGFLSAVFAFGYWGQGTQVTVSS,low polyreactivity
11,QVQLVESGGGLVQAGGSLRLSCAASGITFGRNTMGWYRQAPGKERELVAAIDSGGNTYADSVKGRFTISRDNAKNTVYLQMNSLKPEDTAVYYCAAVVYAYLYADYDYWGQGTQVTVSS,low polyreactivity
12,QVQLVESGGGLVQAGGSLRLSCAASGRIFRVYAMGWYRQEPGKERELVAGISFRGASTYYADSVKGRFTISRDNAKNTVYLQMNSLKPEDTAVYYCAAALPVQYRDMYSWGQGTQVTVSS,high polyreactivity
13,QVQLVESGGGLVQAGGSLRLSCAASGLIFGWYAMGWYRQAPGKERELVAAISWSGSRTNYADSVKGRFTISRDNAKNTVYLQMNSLKPEDTAVYYCAAGWGYSASRYGYWGQGTQVTVSS,high polyreactivity
14,QVQLVESGGGLVQAGGSLRLSCAASGSTFAINTMGSYREAPGKERELVAAISWSGGSTYYADSVKGRFTISRDNAKNTVYLQMNSLKPEDTAVYYCAARVPGWYVPGYNVYYWGQGTQVTVSS,high polyreactivity
15,QVQLVESGGGLVQAGGSLRLSCAASGRTFYRYAMGWSRQAPGKERELVAGISGSGGRTYYADSVKGRFTISRDNAKNTVFLQMNSLKPEDTAVYYCNAYPHAYTGSTREGDYWGQGTQVTVSS,high polyreactivity
16,QVQLVESAGGLVQEGGILRLICADSGRIVYRYAMGWYRQAPGKERELVAAISRRGGSTYYEDSVKGRFTISRDNAKYTVIFQMNSLKAVDTAVYYFARYHWYYRVSKSDSWGQGTQVPVSS,high polyreactivity
17,QVQLVESGGGLVQAGGSLRLSCAASGFTFYNVMGWYRQAPGKERELVATISTSVDSTYYADSVKGRFTISRDNAKNTVYLQMNSLKPEDTAVYYCNADISSNYYDYFGYDYWGQGTQVTVSS,low polyreactivity
18,QVQLVESGGRLVQAGGSLRLSCAASGFIFAVYAMGSYRQAPGKECELVAAISRSSGSTYYADSVKGRFTISRHNAKNTVYLQMNSLKPEDTAVYYCAAVFLYRGYAQYDYWGQGTQVTVSS,high polyreactivity
19,QVQLVESGGGLVQAGGSLRLSCAASGRIFGEYAMGWYSQAPGKERELVASISSGGNTNYADSVKGRFTISRDNAKNTFYLQMNSLKPEDTAVYYCAADDYATPQKMDYWGQGTQVTVSS,high polyreactivity
20,QVQLVESGGGLVQAGGSLRLSCAASGSIFDTYAMGWYRQAPGKERELVAAITWSGSSTYYADSVKGRFTISRDNAKNTVSLQMNRLKPEDTAVYYCAKRQYLYTSKYDYWGQGTQVTVSS,high polyreactivity

row,Sequence,polyreactivity (PSR sort gate)
1,QVQLVESGGGLVQAGGSLRLSCAASGIIFAGYAMGWYRQAPGKVRELVAAISGSGGRTYYADSVKGRLTISRDNAKNTVYLQMNSLKPEDTAVSFCAAEGRSEWGGDYYYGGQGTQVTVSS,low polyreactivity
2,QVHLVESGGGLVQAGGSLRLTCSASGFTFSTYAMGWYRPAPGKESEMVAVISWNGGSTYYADTVKGRFTISRYNAKNTVYLQMNSLKTEDTAVYYCAARGSFKKGYWGQGTQVTVSS,high polyreactivity
3,QVQLVDSGGGLVQAGGSLRLSCAASGRTFTVYAMGWYRQAPGKERELVASISGSSGSTDYADSVKGRFTISRDNAKNTVYLQMNSLKPEDTAVYFCAKASSATRYVQLRQDYDYWGQGTQVTVSS,low polyreactivity
4,QVQLVESGGGLVQAGGSLRLSCAASVITFGRNTMGWYRQAPGKERELVAAISWNGDSTYYADSVKGRFTISRDNAKNTVYFQMNSLKPEDTAVYFCNADDVFLYQTDGLGDYWGQGTQVTVSS,low polyreactivity
5,QVQLVESGGGLVQAGGSLRLSCAASGRILQFYAMGWYRQAPGKERELVATIRVGGGSTYYADSVKGRFTISRDNAKNTVYLQMYSLKPEDTAVYYCAVRQLYSYPGDRRGYYWGQGTQVTVSS,low polyreactivity
6,QVQLVESGGGLVQARGSLRLSCAASGYIFAVYAMGWYRQANGKERELVAAITWSGGRTYYADSVKGRFTISLDNAKNTVYLQMNSLKPEDTAVYYCNARARSRKFYYWGQGTQVTVSS,high polyreactivity
7,QVQLVESGGGLVQAGGSLRLSCAASGYNFYINPMGWYRQAPGKERELVATIRRRGGSTYYADSVKGRFTISRDNAKNTVYLQMNSLKPEDTAVYYCNAVTLGGKYVYQYRRGFDYWGQGTQVTVSS,high polyreactivity
8,QVPLVESGGGLVQAGGSLRLSCAASGRTFGIYAMGWYRQEPGKERELVATISWRGGSTNYADSVKGRFTISRDNAKNTVYLQMNSLKPEDTAVYYCAADPCGFGYPYLTRGTDGYDYWGQGTQVTVSS,low polyreactivity
9,QFQLVESGGGLVQAGGSLRLSCAASGRIFLSYAMGWYRQAPGKERELVAAITLSGGSTYYADSVKGRFTISRDNAKNTVSLQMNSLKPEVTGVYYCAADAWFSLRYAPRSYAYGYWGQGTQVTVSS,low polyreactivity
10,QVQLVESGGGLVQAGGSLRLSCAASGSIFYPNAMGWYRQAPGKERELVADINTSGGDTYYADSVKGRFTISRDNAKNTVYLQMNSLKPEDTAVYYGAAEGYLYQYTSKPSDYWGQGTQVTVSS,low polyreactivity
11,QVQLVESGGGLVQAGGSLRLSCAASGNTFTAYVMGWYRQAPGKERELVAGISGRGSSTYYADSVKGRFTISRDNAKNTVYLQMNSLKQEDTAVYYCAAVRTLRTWVYGRYDYWGQGTQVTVSS,high polyreactivity
12,QVQLVESGRGLVQAGGSLSLSCAASGITFRPYPMGWYRKAPGKERELVAAISRGGSSTYYADSVKGRFTISRDYAKNTVYLQMISLKPEDTAVYYFAARNNKKYDYWGQGTQVTVSS,high polyreactivity
13,QVQLVESGGGLVQAGGSLRLSCAASGFISFDKAMGWYRQAPGKERELVAAIRSGGSTNYADSVKGLFTISRDNAKNTVYLQMNSLKPEDTAVYYCATDGSLRARSTSGWEYTNGDYWGQGTQVTVSS,low polyreactivity
14,QVQLVESGGGLVQAGGSLRLSCAASGSIFVRYDMGWYRQAPGKERELVAAISWNGGRTYYADSVKGRFTISRDNAKNTVYLQMNSLKPEDTAVYYCNAVSKGLGSGLDYWGQGTQVTVSS,high polyreactivity
15,QVQLVESGGGLVQAGGSLRLSCAASGFTFGWYTMGWYRQAPGKEREFVAAISWSGTSTYYADSVKGRFTISRDNAKNTVYLQMNSLKAEDTAVYYCNKLRRGDMEYWGQGTQVTVSS,high polyreactivity
16,QVQLVESGGGLVQAGGSLRLSCAASGRSFSYNAMGWYRQAPGKERELVAAISYGGGRTYYADSVKGRFTISRDNAKNTVYLQMNSLKPEDTAVYYCNRYGRQYDFYYWGQGTQVSVSS,high polyreactivity
17,QVQLVESGGGLVQAGGSLRFSCAASGSIFGYYSLGWYRQAPGKERELVASITFRDGSTYYADSVKGRFTISRDNAKNTVYLQMNSLKPEDTAVYYCAARYYRRYFSDYDYWGQGTQVTVSS,low polyreactivity
18,QDQRVESGGGLVQAGGSLRLSCAASGRTISVYAMGWYRQAPGKERELVAAIRTSGGITYYADSVKGRFTISRDNAKNTVYLQMNSLKPEDTAVYYCAAETFRHDSYTRYYYWGQGTQVTVSS,high polyreactivity
19,QVQLVESGGGLVQAGGSLRLSCAASGNTLDYYAMGWYRQAPGKEREVVEGIDDRTSTNYADSVKGRFTISRDNAKYTVYLQMNSLKPEDTAVYYCNADDGTVNYTSYYSPAVTYDSWGQGTQVTVSS,low polyreactivity
20,QVQLVESGGGLVQAGGSLRLSCAASGRTFKTYAMGWYRQAPGKERELVAAISASGGRTYYADSVKGRFTISRDNAKNTVYLQMNSLKPEDTAVYYCAALGYILNGGDYWGQGTQVTVSS,high polyreactivity
